This note sets out measurements from US6989364B1, “Methods for treating cardiac hypertrophy by administering IFN-γ” (Genentech, Inc., priority 1998, dated 2006).

For data set [1], the system named is left ventricle of male Sprague/Dawley (SD) rats. Kind of data set: Cardiac gene expression (real-time RT-PCR) in rats treated with fluprostenol and/or IFN-γ. The settings on record: SKA, SRCA, COL I, ANF; FIG. 6. Type of data set: in vivo, rat. From the text:
FIGS. 6A–6D Bargraphs showing the effect of fluprostenol (FLUP) and IFN-γ on: A Skeletal actin (SKA); B Sarcoplasmic reticulum calcium ATPase (SRCA); C Collagen I (COL I); D Atrial natriuretic factor (ANF) expression. Expression levels are normalized to glyceraldehyde-3-phosphate dehydrogenase (GAPDH) message. VEH is vehicle. There were 7 animals per group and the data are presented as the mean±SEM. P<0.05 vs VEH group.
RNA preparation Total RNA was isolated using RNeasy Maxi Columns (Qïägen) according to the manufacturer's instructions.
RT-PCR Real-time RT-PCR (TaqMan) technology was used to compare the gene expression between the various treatment groups. An oligonucleotide probe containing a fluorescent reporter dye, […], at the 3′-end was designed to hybridize to the amplicon defined by two PCR primers. A 3′-blocking phosphate prevents extension of the probe. The reporter dye is released from the probe by the 5′ exonuclease activity of Taq polymerase during the extension phase of PCR reaction. […] The threshold cycle number (Ct), defined as the point where the reporter fluorescence reaches a value greater than 10 times the standard deviation of the baseline, is […] to the amount of amplicon produced from the sample. Since the fluorescence is detected during the exponential phase of the amplification, none of the reaction components are limiting. In each experiment, a control is analyzed that lacks the RNA template to monitor for contamination, and another control is included where the RT step is omitted to eliminate amplification of possible contaminating DNA as the source of the signal. Reactions are optimized to give the greatest fluorescence signal and smallest Ct by titration of magnesium and primer concentrations, and the product is run on an agarose gel to verify the presence of a single band at the predicted molecular weight. […]
Quantitation of the TaqMan results was performed as described by Heid et al., Genome Res. 6:986–994 (1996), with modifications. […]

Data set [2] has as its system rats with pressure overload. Kind of data set: Pressure overload (abdominal aortic banding) cardiac hypertrophy: body and organ weights. Type of data set: in vivo, rat. On the procedure: For in vivo testing it is common to induce pressure-overload cardiac hypertrophy by constriction of the abdominal aorta of test animals. In a typical protocol rats (e.g. male Wistar or Sprague-Dawley) are treated under anesthesia, and the abdominal aorta of each rat is narrowed down just below the diaphragm. Beznak M., Can. J. Biochem. Physiol. 33, 985–94 (1955). The aorta is exposed through a surgical incision, and a blunted needle is placed next to the vessel. The aorta is constricted with a ligature of wool thread around the needle, which is immediately removed and which reduces the lumen of the aorta to the diameter of the needle. This approach is described, for example, in Rossi et al., Am. Heart J. 124, 700–709 (1992) and O'Rourke and Reibel, P.S.E.M.B. 200, 95–100 (1992). A detailed description of the protocol used by the present inventors is disclosed in the examples hereinbelow.
Animal model of pressure overload The induction of pressure overload by partial ligation of the abdominal aorta in rats was as described previously. Kimura et al., Am. J. Physiol. 1989:256 (Heart Circ. Physiol. 25):H1006–H1-11; Batra et al., J. Cardiovasc. Pharmacol. 17(suppl. 2), S151–S153 (1991). In brief, rats were anesthesized with ketamine/xylazine as described above. A 3 cm midline incision was made in the abdominal wall. The abdominal aorta between the diaphragm and the renal artery was exposed and looped with 5–0 silk suture. The suture was tightened around a gauge 23 needle, and then the needle was withdrawn. Sham animals received the surgery without tightening the suture.
Experimental protocol in rats with pressure overload The rats with aortic banding randomly received subcutaneous injection of IFN-γ at 0.08 mg/k twice a day for one day before surgery and for 14 days after surgery. Sham animals were not treated. Thirteen days after treatment, a catheter was implanted into the right carotid artery under anesthesia as indicated above. One day after implantation, arterial pressure and HR were measured in conscious rats. The heart and other organs including the liver, kidney, and spleen were removed, weighed, and fixed in 10% buffered formalin for pathological studies. The left ventricle was quickly dissected and frozen with liquid nitrogen in some animals and stored at −80° C. for assessment of gene expression.
Statistical analyisis Results are expressed as mean±SEM. One way analysis of variance (ANOVA) was performed to assess differences in parameters between groups. Significant differences were then subjected to post hoc analysis using Newman-Keuls method; P<0.05 was considered significant.

[3] abbreviates: pressure overload, IFN-γ 0.08 mg/kg s.c. twice a day, 1 day before and 14 days after surgery, mean ± SEM.

As to “IFN-γ: recombinant mouse IFN-γ (Genentech, Inc., South San Francisco, Calif., or Genzyme, Cambridge, Mass.)”, in data set [1], the “Inhibition of alterations in cardiac gene expression associated with fluprostenol induced hypertrophy” value was “inhibited all but the atrial natriuretic factor response”. In addition, the “Effect on cardiac hypertrophy induced by pressure overload (heart, atrial, ventricular, left ventricular weights and ratios to BW)” value in data set [2] (aortic banding, IFN-γ vs vehicle, Table 2, FIGS. 7 and 8) is recorded as “significantly attenuated cardiac hypertrophy”. Besides, the “BWO, basal levels of body weight” value in data set [2] (pressure overload rats, before treatment, mean ± SEM) is on record as 279.0 ± 1.3 g. Moreover, in data set [2] (setting [3]), the “AW, atrial weight” value was “.046 ± .003 g”; the “AW/BW, atrial weight to body weight” value is listed as “.129 ± .007 g/kg”; the “BW, body weight post treatment” value is listed as 355.5 ± 5.2 g; the “KW, kidney weight” value was 1.349 ± .071 g. For the same substance, in data set [2] (setting [3]), the KWBW was 3.776 ± .071 g/kg; the “LW, liver weight” value is recorded as 13.96 ± .47 g; the “LW/BW, liver weight to body weight” value was 38.94 ± .92 g/kg; the “SW, spleen weight” value was 1.170 ± .053 g. In data set [2] (setting [3]), the “SW/BW, spleen weight to body weight” value was 3.261 ± .121 g/kg and the “ΔBW, BW-BWO” value is listed as 76.5 ± 4.7 g.
